Results: patent US20180185504A1 (Regeneron, published 2018)
Positions count from the first letter of the chain named. Names may count otherwise. Blank lines part the entries; values can stand above or below the binder they belong to.

Legend:
[1] = target: T1, human PRLR construct with an HA tag on HEK293/hPRLR cells (human, UniProt P16471 25-622); assay: FACS on HEK293/hPRLR cells
T1 sequence: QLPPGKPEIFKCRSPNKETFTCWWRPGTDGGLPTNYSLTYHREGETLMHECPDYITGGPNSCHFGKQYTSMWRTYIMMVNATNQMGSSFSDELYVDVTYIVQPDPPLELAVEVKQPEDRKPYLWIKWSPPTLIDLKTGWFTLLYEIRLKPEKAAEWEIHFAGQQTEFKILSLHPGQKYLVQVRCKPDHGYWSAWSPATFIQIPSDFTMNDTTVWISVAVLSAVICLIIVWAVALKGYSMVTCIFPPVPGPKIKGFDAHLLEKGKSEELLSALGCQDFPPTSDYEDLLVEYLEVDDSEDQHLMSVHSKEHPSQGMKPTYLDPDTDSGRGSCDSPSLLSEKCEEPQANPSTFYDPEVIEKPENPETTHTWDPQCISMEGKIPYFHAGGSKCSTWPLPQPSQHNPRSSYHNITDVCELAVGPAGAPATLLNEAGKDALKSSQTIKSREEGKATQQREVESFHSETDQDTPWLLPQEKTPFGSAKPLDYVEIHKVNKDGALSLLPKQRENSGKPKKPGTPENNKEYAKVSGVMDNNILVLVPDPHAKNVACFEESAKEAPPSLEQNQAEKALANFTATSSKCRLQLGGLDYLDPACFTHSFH

[2] = target: T2, human PRLR on cells (endogenous on T47D, T47D#11, MCF7); introduced in HEK293/hPRLR/STAT5-Luc, 293/hPRLR, … (human, UniProt P16471 25-622); assay: imaging of alexa488 intensity on T47D cells
T2 construct: no tag is stated for these lines; also called prolactin receptor
T2 sequence: T1 sequence
Protocol: Briefly, 20,000 T47D cells were seeded in collagen coated 96 well plates. […] Cells were then incubated with alexa488 conjugated anti-hFc Fab secondary antibodies for 30 minutes on ice followed by two additional PBS washes. Antibodies were allowed to internalize for 1 h at 37° C. in internalization buffer (PBS+2% FBS) or remained at 4° C. Cells were fixed in 4% formaldehyde, nuclei were stained with DRAQ5 (Cell signaling), and images were acquired on the ImageXpress micro XL (Molecular Devices). Whole cell alexa488 intensity at 37° C. (Binding) and the alexa488 intensity in the intracellular vesicles at 37° C. (Internalization) were determined via Columbus image analysis software (PerkinElmer).

[3] = target: T3, mfPRLR.mmh (soluble monomeric macaca fascicularis PRLR) (macaca fascicularis); assay: SPR (Biacore), antibody capture, 37 C
T3 construct: soluble monomeric PRLR protein; also called macaca fascicularis (mf) PRLR.mmh; monkey PRLR
T3 chain: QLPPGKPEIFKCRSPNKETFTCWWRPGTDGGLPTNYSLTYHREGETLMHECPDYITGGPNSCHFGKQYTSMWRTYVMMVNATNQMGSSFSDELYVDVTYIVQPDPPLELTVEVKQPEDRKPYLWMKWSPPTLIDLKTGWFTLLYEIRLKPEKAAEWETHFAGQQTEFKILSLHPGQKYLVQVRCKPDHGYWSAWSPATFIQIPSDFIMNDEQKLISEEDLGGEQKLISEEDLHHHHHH
Protocol: (§1) Measurements were conducted on a T200 Biacore instrument. Kinetic association (kₐ) and dissociation (kd) rate constants were determined by processing and fitting the data to a 1:1 binding model using Scrubber 2.0 curve fitting software.

[4] = target: T4, hPRLR.mmh (soluble monomeric human PRLR) (human); assay: SPR (Biacore), antibody capture, 37 C
T4 construct: soluble monomeric PRLR protein
T4 chain: T3 chain with V76I, T110A, M125I, T158I, I207T
Protocol: as §1

[5] = target: T5, hPRLR.mFc (soluble dimeric human PRLR) (human); assay: SPR (Biacore), antibody capture, 37 C
T5 construct: dimeric PRLR construct
T5 chain: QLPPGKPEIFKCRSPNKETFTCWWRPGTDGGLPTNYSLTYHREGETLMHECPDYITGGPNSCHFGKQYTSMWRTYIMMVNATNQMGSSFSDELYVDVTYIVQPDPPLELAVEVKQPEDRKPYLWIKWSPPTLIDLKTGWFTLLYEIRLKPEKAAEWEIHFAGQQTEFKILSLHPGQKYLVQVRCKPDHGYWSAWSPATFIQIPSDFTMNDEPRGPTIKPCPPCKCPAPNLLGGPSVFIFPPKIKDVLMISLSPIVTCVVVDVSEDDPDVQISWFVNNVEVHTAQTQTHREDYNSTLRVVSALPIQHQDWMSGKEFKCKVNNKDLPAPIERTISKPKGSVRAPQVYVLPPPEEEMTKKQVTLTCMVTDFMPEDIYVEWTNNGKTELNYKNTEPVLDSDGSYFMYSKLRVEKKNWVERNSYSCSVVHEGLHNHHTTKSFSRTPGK
Protocol: as §1

[6] = target: T2, human PRLR on cells (endogenous on …); assay: FACS on T47D cells
[7] = target: T2, human PRLR on cells (endogenous on …); assay: cell-based or functional assay
[8] = target: T6, monkey macaca fascicularis PRLR construct with an HA tag on HEK293/mfPRLR cells (macaca fascicularis, UniProt A0A2K5WXK1 25-619); assay: FACS on HEK293/mfPRLR cells
T6 construct: stably transfected into HEK293
T6 sequence: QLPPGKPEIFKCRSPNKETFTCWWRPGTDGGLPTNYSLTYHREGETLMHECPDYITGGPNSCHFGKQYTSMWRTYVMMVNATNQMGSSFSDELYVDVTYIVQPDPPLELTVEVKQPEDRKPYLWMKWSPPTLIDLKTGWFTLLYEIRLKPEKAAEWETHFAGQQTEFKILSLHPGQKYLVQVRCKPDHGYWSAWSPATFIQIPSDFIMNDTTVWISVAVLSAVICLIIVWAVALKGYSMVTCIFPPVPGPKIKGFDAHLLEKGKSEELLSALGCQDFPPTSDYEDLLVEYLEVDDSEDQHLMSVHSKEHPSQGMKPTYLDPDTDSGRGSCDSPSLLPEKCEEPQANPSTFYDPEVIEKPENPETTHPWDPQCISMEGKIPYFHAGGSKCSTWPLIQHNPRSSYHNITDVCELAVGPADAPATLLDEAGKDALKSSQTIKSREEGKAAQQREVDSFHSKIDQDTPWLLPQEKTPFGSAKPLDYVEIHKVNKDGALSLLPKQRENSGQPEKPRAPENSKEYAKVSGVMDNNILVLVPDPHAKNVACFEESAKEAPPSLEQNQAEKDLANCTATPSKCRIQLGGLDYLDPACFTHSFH

[9] = target: T2, human PRLR on cells (endogenous on …); assay: cell-based or functional assay; remark: listed apart in the source
[10] = target: T7, mouse PRLR with an HA tag on HEK293 cells (mouse, UniProt Q08501 20-608); assay: FACS on HEK293/mPRLR cells
T7 construct: whole, on cells; also called HEK293/mPRLR; rodent PRLR; not shown: HA tag
T7 sequence (looked up): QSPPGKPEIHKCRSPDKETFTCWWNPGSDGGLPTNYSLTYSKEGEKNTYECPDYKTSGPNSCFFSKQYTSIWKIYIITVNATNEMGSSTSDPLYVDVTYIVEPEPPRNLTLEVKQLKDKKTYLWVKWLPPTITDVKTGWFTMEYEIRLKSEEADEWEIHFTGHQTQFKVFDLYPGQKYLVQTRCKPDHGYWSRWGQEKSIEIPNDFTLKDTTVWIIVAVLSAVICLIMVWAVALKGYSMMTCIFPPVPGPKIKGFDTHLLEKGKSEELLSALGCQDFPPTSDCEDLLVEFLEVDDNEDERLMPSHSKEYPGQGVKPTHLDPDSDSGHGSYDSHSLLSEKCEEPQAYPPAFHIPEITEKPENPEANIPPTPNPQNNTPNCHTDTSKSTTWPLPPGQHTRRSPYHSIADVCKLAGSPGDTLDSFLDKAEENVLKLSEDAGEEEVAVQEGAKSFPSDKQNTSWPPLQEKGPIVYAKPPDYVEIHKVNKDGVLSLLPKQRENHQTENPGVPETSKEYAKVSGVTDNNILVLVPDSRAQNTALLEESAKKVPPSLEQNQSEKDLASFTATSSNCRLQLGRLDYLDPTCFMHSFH

B1: H1H6801P (antibody, human IgG1, V domains shown)
VH: QVQLQQSGPGLVKPSQTLSLTCVISGDSVSSNTAWNWVRQSPSRGLEWLGRTYYRSKWYNDYAVSVKSRITINPDTSKNQFSLLMNSVTPEDTAVYYCARVVRGLNYFDYWGQGTLVTVSS
VL: DIVMTQSPDSLAVSLGERATINCKSSQSVLYNSNNKNYLAWYQQKPGQPPKLLIYWSSSRESGVPDRFSGSGSGTDFTLTISGLQAEDVAIYYCQQYSTIPYTFGQGTKLEIK
notes: human IgG1 Fc (H1H)
- FACS Cell Binding (Fold Above Background) [1]: 47 fold
- % Total Binding relative to Control I [2]: 156%
- Kd [3]: 10.8 nM
- T 1/2 [3]: 1 min
- koff [3]: 0.00771 s⁻¹
- kon [3]: 711000 M⁻¹ s⁻¹
- Kd [4]: 4.63 nM
- T 1/2 [4]: 3 min
- koff [4]: 0.00441 s⁻¹
- kon [4]: 951000 M⁻¹ s⁻¹
- Kd [5]: 0.279 nM
- T 1/2 [5]: 52 min
- koff [5]: 0.000221 s⁻¹
- kon [5]: 793000 M⁻¹ s⁻¹
- FACS Cell Binding (Fold Above Background) [6]: 45 fold
- IC50 of Blocking 5 nM PRL [M] (STAT5-Luc reporter, HEK293/hPRLR/STAT5-Luc cells) [7]: 1.4e-10 M
- Percent Blocking at 100 nM Antibody (STAT5-Luc reporter) [7]: 100%
- FACS Cell Binding (Fold Above Background) [8]: 88 fold
- % Internalization relative to Control I (T47D cells, imaging) [9]: 149%

B2: H1H6797P (antibody, human IgG1, V domains shown)
VH: EVQLVESGGGLVQPGGSLRLSCIVSGFTFSGSWMSWVRQLPGKGLEWVANIKEDGSDSYYVDSVEGRFTISRDNAKSSLYLQMNSLRVDDTAVYFCARARTVPLHYWGQGTLVTVSS
VL: DIQMTQSPSTLSASVGDRVTITCRASQSINIWLAWYQQKPGKAPKLLIYRASYLESGVPSSFAGGGSGTEFTLTISSLQPDDFGTYYCQHYNSYPFTFGQGTKLEIK
- binding result [10]: no binding

B3: H1H6795P (antibody, human IgG1, V domains shown)
VH: QVQLVQSGAEVKKPGASVKVSCKASGYTFGTSGITWVRQAPGQGLEWMGWSSAYNGKTDYAQKFQDRVTMTTDTSTTTGYMEMRSLTSDDTAVYYCTTVVRRPFDFWGQGTLVTVSS
VL: DIQMTQSPSSLSASVGDRVTITCRASQDINNFLAWFQQKPGKAPKSLIYAASSLQSGVPSKFSGGGSGTDFALTISSLQPEDFATYYCQQYSSYPITFGQGTRLEIK
- binding result [10]: no binding

B4: H1H6807P (antibody, V domains shown)
VH: QVQLVESGGGVVQPGRSLRLSCAASGFTFSDYNMHWVRQAPGKGLEWVAVIWYDGSNKHYADSVKGRFTISRDNSKNTLYLQMNSLRAEDTAVYYCARDGFTIFGMVLDYWGQGTLVTVSS
VL: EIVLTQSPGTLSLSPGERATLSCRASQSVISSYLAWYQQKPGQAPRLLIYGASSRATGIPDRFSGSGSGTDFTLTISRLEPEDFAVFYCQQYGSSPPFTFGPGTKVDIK
- binding result [10]: no binding

Second part, the binder after the results:

- binding result [10]: no binding
B5: H1H6803P (antibody, human IgG1, V domains shown)
VH: EVQLVESGGGVVRPGGSLRLSCAASGFKFDDYGMTWVRHVPGKGLEWVSGINWNGGRTGYTDSVKGRFTISRDNAKNSLYLQMNSLRAEDTALYHCAGARRDAFDIWGQGTMVTVSS
VL: DIQMTQSPSSLSASIGDRVTITCRASQNIIKYLNWYQQNAGKAPKLLIYTASSLQSGVPSRFSGSGSGTDFTLTISSLQPEDFATYYCQQSSSSPYTFGQGTKLEIK

- binding result [10]: no binding
B6: H1H6800P (antibody, human IgG1, V domains shown)
VH: EVQLVESGGGLVQPGRSLRLSCAASGFTFDGYAMHWVRQGPGKGLEWVSGISWYSDTLGYADSVKGRFTISRDNAKNSLYLQMNSLRTEDTAFYYCAKISSSGWAFDYWGQGTLVTVSS
VL: EIVLTQSPGTLSLSPGERATLSCRASHSVSSAYLAWYQQKPGQTPRLLIYGTSSRATGIPDRFSGSGSGTDFTLTISRLEPEDFAVYYCQQYGSSPLFTFGPGTKVDIK

- binding result [10]: no binding
B7: H1H6793P (antibody, human IgG1, V domains shown)
VH: EVQLVESGGGLVQPGGSLRLSCAASGFSFSIYAMSWFRQAPGKGLEWVSAINGRGDGTHYADSVKGRFTISRDNSKTTLYLQMSSLRAEDTAVYYCAKPVMSTNGFDIWGQGTMVTVSS
VL: DIQMTQSPSTLSASVGDRVTITCRASQSISSWLAWYQLKPGKAPKLLIYKASNLESGVPSRFSGSGSGTEFTLTISSLQPDDFATYYCQQYNIYWTFGQGTKVEIK
